From patent EP4671273A1 (Anaveon AG, dated 2025)
Like-named read-outs stand apart in the source and are kept apart here.

B1: ULS916 (bispecific antibody, human IgG1, kappa, lambda, L234A L235A)
heavy 1: EVQLLESGGGLVQPGGSLRLSCAASGFTFSINAMTWVRQAPGKGLEWVSTISGSGFSTYYADSLKGRFTISRDNSKNTLYLQMNSLRAEDTAVYYCAKEVYGDYWGQGTLVTVSSASTKGPSVFPLAPSSKSTSGGTAALGCLVKDYFPEPVTVSWNSGALTSGVHTFPAVLQSSGLYSLSSVVTVPSSSLGTQTYICNVNHKPSNTKVDKRVEPKSCDKTHTCPPCPAPEAAGGPSVFLFPPKPKDTLMISRTPEVTCVVVDVSHEDPEVKFNWYVDGVEVHNAKTKPREEQYNSTYRVVSVLTVLHQDWLNGKEYKCKVSNKALAAPIEKTISKAKGQPREPQVCTLPPSREEMTKNQVSLSCAVKGFYPSDIAVEWESNGQPENNYKTTPPVLDSDGSFFLVSKLTVDKSRWQQGNVFSCSVMHEALHNHYTQKSLSLSPGK
light 1: not shown
heavy 2: QVQLQESGPGLVKPSETLSLTCTVSGGSISSDYWGWIRQPPGKGLEWIGYISYRGSTNYNPSLKSRVTISVDTSRNQFSLKLSSVTAADTAVYYCARSAGVTDFDAWGQGTLVTVSSASTKGPSVFPLAPSSKSTSGGTAALGCLVKDYFPEPVTVSWNSGALTSGVHTFPAVLQSSGLYSLSSVVTVPSSSLGTQTYICNVNHKPSNTKVDKRVEPKSCDKTHTCPPCPAPEAAGGPSVFLFPPKPKDTLMISRTPEVTCVVVDVSHEDPEVKFNWYVDGVEVHNAKTKPREEQYNSTYRVVSVLTVLHQDWLNGKEYKCKVSNKALAAPIEKTISKAKGQPREPQVYTLPPCREEMTKNQVSLWCLVKGFYPSDIAVEWESNGQPENNYKTTPPVLDSDGSFFLYSKLTVDKSRWQQGNVFSCSVMHEALHNHYTQKSLSLSPGK
light 2: not shown
B2: GOP758 (bispecific antibody, human IgG1, kappa, lambda, L234A L235A)
heavy 1: EVQLLESGGGLVQPGGSLRLSCAASGFTFSINAMTWVRQAPGKGLEWVSTISGSGFSTYYADSLKGRFTISRDNSKNTLYLQMNSLRAEDTAVYYCAKEVYGDYWGQGTLVTVSSASTKGPSVFPLAPSSKSTSGGTAALGCLVKDYFPEPVTVSWNSGALTSGVHTFPAVLQSSGLYSLSSVVTVPSSSLGTQTYICNVNHKPSNTKVDKRVEPKSCDKTHTCPPCPAPEAAGGPSVFLFPPKPKDTLMISRTPEVTCVVVDVSHEDPEVKFNWYVDGVEVHNAKTKPREEQYNSTYRVVSVLTVLHQDWLNGKEYKCKVSNKALAAPIEKTISKAKGQPREPQVCTLPPSREEMTKNQVSLSCAVKGFYPSDIAVEWESNGQPENNYKTTPPVLDSDGSFFLVSKLTVDKSRWQQGNVFSCSVMHEALHNHYTQKSLSLSPGK
light 1: not shown
heavy 2: QVQLQESGPGLVKPSETLSLTCTVSGGSISSDFWGWIRQPPGKGLEWIGYISSRGSTNYNPSLKRRVTISVDTSRNQFSLKLSSVTAADTAVYYCARSAGVTDFDFWGQGTLVTVSSASTKGPSVFPLAPSSKSTSGGTAALGCLVKDYFPEPVTVSWNSGALTSGVHTFPAVLQSSGLYSLSSVVTVPSSSLGTQTYICNVNHKPSNTKVDKRVEPKSCDKTHTCPPCPAPEAAGGPSVFLFPPKPKDTLMISRTPEVTCVVVDVSHEDPEVKFNWYVDGVEVHNAKTKPREEQYNSTYRVVSVLTVLHQDWLNGKEYKCKVSNKALAAPIEKTISKAKGQPREPQVYTLPPCREEMTKNQVSLWCLVKGFYPSDIAVEWESNGQPENNYKTTPPVLDSDGSFFLYSKLTVDKSRWQQGNVFSCSVMHEALHNHYTQKSLSLSPGK
light 2: DIQMTQSPSSVSASVGDRVTITCRASQGISSWLAWYQHKPGKAPKLLIYVASSLQGGGGSQGQDRHMIRMRQLIDIVDQLKNYVNDLVPEFLPAPEDVETNCEWSAFSCFQKAQLKSANTGNNERIINVSIKKLKRKPPSTNAGRRQKHRLTCPSCDSYEKKPPKEFLERFKSLLQKMIHQHLSSRTHGSEDSGGGGSSGVPSRFSGSGSGTDFTLTISSLQPEDFATYYCQQANSFPLTFGGGTKVEIKRTVAAPSVFIFPPSDEQLKSGTASVVCLLNNFYPREAKVQWKVDNALQSGNSQESVTEQDSKDSTYSLSSTLTLSKADYEKHKVYACEVTHQGLSSPVTKSFNRGEC
B3: UNY098 (bispecific antibody, human IgG1, kappa, lambda, L234A L235A)
heavy 1: EVQLLESGGGLVQPGGSLRLSCAASGFTFSINAMTWVRQAPGKGLEWVSTISGSGFSTYYADSLKGRFTISRDNSKNTLYLQMNSLRAEDTAVYYCAKEVYGDYWGQGTLVTVSSASTKGPSVFPLAPSSKSTSGGTAALGCLVKDYFPEPVTVSWNSGALTSGVHTFPAVLQSSGLYSLSSVVTVPSSSLGTQTYICNVNHKPSNTKVDKRVEPKSCDKTHTCPPCPAPEAAGGPSVFLFPPKPKDTLMISRTPEVTCVVVDVSHEDPEVKFNWYVDGVEVHNAKTKPREEQYNSTYRVVSVLTVLHQDWLNGKEYKCKVSNKALAAPIEKTISKAKGQPREPQVCTLPPSREEMTKNQVSLSCAVKGFYPSDIAVEWESNGQPENNYKTTPPVLDSDGSFFLVSKLTVDKSRWQQGNVFSCSVMHEALHNHYTQKSLSLSPGK
light 1: not shown
heavy 2: QVQLQESGPGLVKPSETLSLTCTVSGGSISSDYWGWIRQPPGKGLEWIGYISYRGSTNYNPSLKSRVTISVDTSRNQFSLKLSSVTAADTAVYYCARSAGVTDFDAWGQGTLVTVSSASTKGPSVFPLAPSSKSTSGGTAALGCLVKDYFPEPVTVSWNSGALTSGVHTFPAVLQSSGLYSLSSVVTVPSSSLGTQTYICNVNHKPSNTKVDKRVEPKSCDKTHTCPPCPAPEAAGGPSVFLFPPKPKDTLMISRTPEVTCVVVDVSHEDPEVKFNWYVDGVEVHNAKTKPREEQYNSTYRVVSVLTVLHQDWLNGKEYKCKVSNKALAAPIEKTISKAKGQPREPQVYTLPPCREEMTKNQVSLWCLVKGFYPSDIAVEWESNGQPENNYKTTPPVLDSDGSFFLYSKLTVDKSRWQQGNVFSCSVMHEALHNHYTQKSLSLSPGK
light 2: not shown
B4: VCG677 (bispecific antibody, human IgG1, kappa, lambda, L234A L235A)
heavy 1: EVQLLESGGGLVQPGGSLRLSCAASGFTFSINAMTWVRQAPGKGLEWVSTISGSGFSTYYADSLKGRFTISRDNSKNTLYLQMNSLRAEDTAVYYCAKEVYGDYWGQGTLVTVSSASTKGPSVFPLAPSSKSTSGGTAALGCLVKDYFPEPVTVSWNSGALTSGVHTFPAVLQSSGLYSLSSVVTVPSSSLGTQTYICNVNHKPSNTKVDKRVEPKSCDKTHTCPPCPAPEAAGGPSVFLFPPKPKDTLMISRTPEVTCVVVDVSHEDPEVKFNWYVDGVEVHNAKTKPREEQYNSTYRVVSVLTVLHQDWLNGKEYKCKVSNKALAAPIEKTISKAKGQPREPQVCTLPPSREEMTKNQVSLSCAVKGFYPSDIAVEWESNGQPENNYKTTPPVLDSDGSFFLVSKLTVDKSRWQQGNVFSCSVMHEALHNHYTQKSLSLSPGK
light 1: not shown
heavy 2: QVQLQESGPGLVKPSETLSLTCTVSGGSISSDFWGWIRQPPGKGLEWIGYISSRGSTNYNPSLKRRVTISVDTSRNQFSLKLSSVTAADTAVYYCARSAGVTDFDFWGQGTLVTVSSASTKGPSVFPLAPSSKSTSGGTAALGCLVKDYFPEPVTVSWNSGALTSGVHTFPAVLQSSGLYSLSSVVTVPSSSLGTQTYICNVNHKPSNTKVDKRVEPKSCDKTHTCPPCPAPEAAGGPSVFLFPPKPKDTLMISRTPEVTCVVVDVSHEDPEVKFNWYVDGVEVHNAKTKPREEQYNSTYRVVSVLTVLHQDWLNGKEYKCKVSNKALAAPIEKTISKAKGQPREPQVYTLPPCREEMTKNQVSLWCLVKGFYPSDIAVEWESNGQPENNYKTTPPVLDSDGSFFLYSKLTVDKSRWQQGNVFSCSVMHEALHNHYTQKSLSLSPGK
light 2: not shown

Legend:
[1] = target: T1, human IL-21 receptor (IL-21R) on cells (human, UniProt Q9HBE5 20-538; P31785 23-369); assay: cell-based or functional assay
[2] = target: T1, human IL-21 receptor (IL-21R) on cells; assay: cell-based or functional assay; remark: listed apart in the source

T1 sequence (Q9HBE5 20-538, chain 1 of 2): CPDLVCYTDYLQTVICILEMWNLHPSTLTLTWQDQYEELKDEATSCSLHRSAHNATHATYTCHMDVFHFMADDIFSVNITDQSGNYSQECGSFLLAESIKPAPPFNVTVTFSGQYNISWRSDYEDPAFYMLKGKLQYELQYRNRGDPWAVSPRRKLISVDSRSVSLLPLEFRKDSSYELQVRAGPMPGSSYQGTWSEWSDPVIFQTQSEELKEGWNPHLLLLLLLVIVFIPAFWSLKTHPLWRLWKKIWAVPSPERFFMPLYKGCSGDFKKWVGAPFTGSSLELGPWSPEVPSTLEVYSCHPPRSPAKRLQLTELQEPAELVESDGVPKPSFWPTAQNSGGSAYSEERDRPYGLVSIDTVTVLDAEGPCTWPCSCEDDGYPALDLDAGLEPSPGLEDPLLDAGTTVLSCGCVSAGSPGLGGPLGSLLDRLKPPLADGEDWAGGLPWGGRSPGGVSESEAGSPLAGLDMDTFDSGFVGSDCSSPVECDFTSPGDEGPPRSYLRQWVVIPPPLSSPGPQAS
T1 sequence (P31785 23-369, chain 2 of 2): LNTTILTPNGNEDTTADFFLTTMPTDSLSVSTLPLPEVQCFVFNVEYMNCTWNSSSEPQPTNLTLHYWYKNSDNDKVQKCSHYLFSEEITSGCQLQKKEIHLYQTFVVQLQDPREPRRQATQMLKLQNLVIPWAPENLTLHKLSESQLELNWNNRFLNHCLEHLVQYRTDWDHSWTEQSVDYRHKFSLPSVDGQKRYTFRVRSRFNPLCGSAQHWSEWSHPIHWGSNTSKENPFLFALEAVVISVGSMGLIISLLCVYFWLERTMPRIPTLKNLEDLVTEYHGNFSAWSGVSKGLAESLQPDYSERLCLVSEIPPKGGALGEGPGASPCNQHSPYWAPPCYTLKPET

Row | Binder | EC50B, pSTAT3+ Jurkat PD-1 cells, PD-1 blocked [1] [nM] | EC50NB, pSTAT3+ Jurkat PD-1 cells [1] [pM] | EC50B, pSTAT3+ Jurkat PD-1 cells, PD-1 blocked [2] [nM] | EC50NB, pSTAT3+ Jurkat PD-1 cells [2]
1 | B1 | 0.873 | 6 |  | 
2 | B2 |  |  | 0.51 | 0.227 nM
3 | B3 | 0.333 | 7 |  | 
4 | B4 |  |  | 2.3 | 39 pM
